Data set [1] addresses T1, LAG3-Fc (rmLAG3-Fc) (mouse, UniProt Q61790 24-442). Description: filter binding; 2 mM Ca2+; Filter binding: 20 mM HEPES pH 7.4, 150 mM NaCl, 2 mM CaCl2, 37 C, 30 min; SPR: PBS, 0.005% Tween 20, pH 7.4, temperature not stated. Conditions: protein: recombinant; tags: human IgG2-Fc fusion; chain copies: 2; label: 32P (alpha-ATP).
Data set [2] deals with T1, LAG3-Fc (rmLAG3-Fc). As to the kind of experiment: SPR; apparent Kd from equilibrium RU; printed kon 1x10^3, koff <2.1x10^-4 s-1 do not match it; Filter binding: 20 mM HEPES pH 7.4, 150 mM NaCl, 2 mM CaCl2, 37 C, 30 min; SPR: PBS, 0.005% Tween 20, pH 7.4, temperature not stated. Conditions: protein: recombinant; tags: human IgG2-Fc fusion; chain copies: 2. Background: Surface plasmon resonance follows binding to a sensor surface in real time, without labels.

From publication PMC5608357, “Identification of LAG3 high affinity aptamers by HT-SELEX and Conserved Motif Accumulation (CMA)” come the findings set out here.

T1 sequence (Q61790 24-442): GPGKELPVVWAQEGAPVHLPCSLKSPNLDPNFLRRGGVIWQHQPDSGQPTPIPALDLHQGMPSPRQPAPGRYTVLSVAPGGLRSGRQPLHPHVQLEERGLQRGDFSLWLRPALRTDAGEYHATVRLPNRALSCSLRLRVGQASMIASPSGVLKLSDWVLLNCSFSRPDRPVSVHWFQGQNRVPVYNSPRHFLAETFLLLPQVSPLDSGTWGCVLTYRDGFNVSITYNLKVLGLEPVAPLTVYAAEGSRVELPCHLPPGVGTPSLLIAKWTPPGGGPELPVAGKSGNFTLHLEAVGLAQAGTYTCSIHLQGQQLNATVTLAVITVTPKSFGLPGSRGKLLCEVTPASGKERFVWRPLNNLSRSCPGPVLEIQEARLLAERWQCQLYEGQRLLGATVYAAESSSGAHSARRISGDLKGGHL

B1: LAG3 Apt1 (structured_RNA)
RNA: GGGAGAGAGAUAUAAGGGCCUCCUGAUACCCGCUGCUAUCUGGACCGAUCCCAUUACCAAAUUCUCUCCC
modifications: 2'-F-U, 2'-F-C
With B1, the Kd in the data set with LAG3-Fc (rmLAG3-Fc) [1] was 20 nM.

B2: LAG3 Apt1, biotinylated (structured_RNA)
RNA: B1 RNA
modifications: 2'-F-U, 2'-F-C
As for B2, the Kd with LAG3-Fc (rmLAG3-Fc) [2] was found to be 2.7 nM.

B3: LAG3 Apt2 (structured_RNA)
RNA: GGGAGAGAGAUAUAAGGGUCUUGCCUGAUGGAGUUGGAGAGGACCAUCACCCAUUACCAAAUUCUCUCCC
modifications: 2'-F-U, 2'-F-C
For B3, the Kd with LAG3-Fc (rmLAG3-Fc) [1] is 50 nM.

B4: LAG3 Apt4 (structured_RNA)
RNA: GGGAGAGAGAUAUAAGGGACCGAAUCUGGUUAAUCUGCCUCACGUUAGGCCCAUUACCAAAUUCUCUCCC
modifications: 2'-F-U, 2'-F-C
Take B4: the Kd with LAG3-Fc (rmLAG3-Fc) [1] came to 100 nM.

B5: LAG3 Apt5 (structured_RNA)
RNA: GGGAGAGAGAUAUAAGGGUCUUGCCCAUCGACAAUAGAGCCCAGUCGCUGCCCAUUACCAAAUUCUCUCC
modifications: 2'-F-U, 2'-F-C
As to B5, the Kd with LAG3-Fc (rmLAG3-Fc) [1] is 200 nM.
